Experimental data from the supplement of paper PMC7125110.
± gives the standard error. Fewer inactive variants are shown than the library holds.

B1: glmS ribozyme (parent)
chain: AUAAAAGCGCCAGAACUACAGAAAUGUAGUUGACGAGGAGGAGGUUUAUCGAAUUUUCGGCGGAUGCCUCCAAA

How the values were obtained:
Conditions in all cases: with glucosamine-6-phosphate
[1] = variants of: B1; experiment: self-cleavage kobs at 40 uM GlcN6P; higher = faster cleavage; RNA array
Procedure, shortened: (§1)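 Ribozyme variants carrying barcodes were transcribed in situ on sequenced MiSeq chips by E. coli RNA polymerase and tracked at 37 °C with a hybridised Cy3 probe. They were exposed to 40 μM to 10 mM glucosamine-6-phosphate in HEPES/KCl/Mg(OAc)2 buffer. kobs came from exponential decay fits of normalised per-tile medians, and kcat and KM from weighted Michaelis–Menten fits.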

[2] = variants of: B1; experiment: self-cleavage kobs at 160 uM GlcN6P; higher = faster cleavage; RNA array
Procedure, shortened: as §1

[3] = variants of: B1; experiment: self-cleavage kobs at 640 uM GlcN6P; higher = faster cleavage; RNA array
Procedure, shortened: as §1

[4] = variants of: B1; experiment: self-cleavage kobs at 2500 uM GlcN6P; higher = faster cleavage; RNA array
Procedure, shortened: as §1

[5] = variants of: B1; experiment: self-cleavage kobs at 10000 uM GlcN6P; higher = faster cleavage; RNA array
Procedure, shortened: as §1

| Variant | self-cleavage kobs at 40 uM GlcN6P [1] | self-cleavage kobs at 160 uM GlcN6P [2] | self-cleavage kobs at 640 uM GlcN6P [3] | self-cleavage kobs at 2500 uM GlcN6P [4] | self-cleavage kobs at 10000 uM GlcN6P [5] |
| --- | --- | --- | --- | --- | --- |
| A14G U31A | 0.00248 ± 0.00049 s⁻¹ | 0.0027 ± 0.00061 s⁻¹ | 0.00935 ± 0.0021 s⁻¹ | 0.0146 ± 0.006 s⁻¹ | 0.0669 ± 0.024 s⁻¹ |
| G38C U56C | < 1e-05 s⁻¹ | < 1e-05 s⁻¹ |  | < 1e-05 s⁻¹ | < 1e-05 s⁻¹ |
| G38A A48U | < 1e-05 s⁻¹ |  | < 1e-05 s⁻¹ |  | < 1e-05 s⁻¹ |
| C11G G35C C70G | 8.82e-05 ± 4e-05 s⁻¹ |  |  |  |  |
| A6C C50G C70U | 0.000111 ± 3.3e-05 s⁻¹ |  | 0.000347 ± 0.0001 s⁻¹ | 0.000114 ± 2.7e-05 s⁻¹ | 0.000121 ± 2.9e-05 s⁻¹ |
| G13A C50A U69G | 4.48e-05 ± 2.2e-05 s⁻¹ |  |  |  |  |
| A33U C61U C70G | < 1e-05 s⁻¹ |  |  |  |  |
| C10G C34U | < 1e-05 s⁻¹ | < 1e-05 s⁻¹ | < 1e-05 s⁻¹ | < 1e-05 s⁻¹ | < 1e-05 s⁻¹ |
| A52G U65A U69G C70U | 5.09e-05 ± 1.9e-05 s⁻¹ |  |  |  | 3.34e-05 ± 1.4e-05 s⁻¹ |
| G7C U54A | < 1e-05 s⁻¹ |  | < 1e-05 s⁻¹ |  | < 1e-05 s⁻¹ |
| A33C G63U | < 1e-05 s⁻¹ |  | < 1e-05 s⁻¹ | < 1e-05 s⁻¹ | < 1e-05 s⁻¹ |
| C34A G40C U46C | < 1e-05 s⁻¹ |  |  |  |  |
| G32C A33U | < 1e-05 s⁻¹ | < 1e-05 s⁻¹ | < 1e-05 s⁻¹ | < 1e-05 s⁻¹ |  |
| G44A U46G U69G | < 1e-05 s⁻¹ |  |  |  | < 1e-05 s⁻¹ |
| C8U C61U | < 1e-05 s⁻¹ | < 1e-05 s⁻¹ | < 1e-05 s⁻¹ | < 1e-05 s⁻¹ | < 1e-05 s⁻¹ |
| A48U G63U | < 1e-05 s⁻¹ | < 1e-05 s⁻¹ | < 1e-05 s⁻¹ | < 1e-05 s⁻¹ | < 1e-05 s⁻¹ |
| A14G A36U A48U | < 1e-05 s⁻¹ |  |  |  |  |
| C8A A15U A36G | < 1e-05 s⁻¹ |  |  |  |  |
| A39G U56G | 0.00055 ± 0.00012 s⁻¹ |  |  |  | 0.0224 ± 0.0047 s⁻¹ |
| G37C G38A | < 1e-05 s⁻¹ | < 1e-05 s⁻¹ |  |  | < 1e-05 s⁻¹ |
| A6C G7C C11G U55G | < 1e-05 s⁻¹ |  |  |  | < 1e-05 s⁻¹ |
| G7A A33C U57C G63A | < 1e-05 s⁻¹ |  |  |  |  |
| A33U C34U G60U | < 1e-05 s⁻¹ |  |  |  |  |
| G7C G66U | < 1e-05 s⁻¹ | < 1e-05 s⁻¹ | < 1e-05 s⁻¹ | < 1e-05 s⁻¹ |  |
